Measured values reported in patent US20260055202A1 (TEXAS A AND M UNIVERSITY SYSTEM, published 2026).

T1: human CD20 on Raji B lymphoma cells (human, UniProt P11836 1-297)
T1 sequence (looked up): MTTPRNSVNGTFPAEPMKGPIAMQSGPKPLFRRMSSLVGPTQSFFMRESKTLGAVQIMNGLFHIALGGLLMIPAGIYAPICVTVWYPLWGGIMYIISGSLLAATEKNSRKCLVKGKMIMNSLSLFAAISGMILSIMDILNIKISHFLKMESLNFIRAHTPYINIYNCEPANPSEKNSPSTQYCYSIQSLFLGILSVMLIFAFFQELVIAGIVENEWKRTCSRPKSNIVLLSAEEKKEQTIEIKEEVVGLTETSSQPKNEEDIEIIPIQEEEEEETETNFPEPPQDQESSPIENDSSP

T2: mouse CD20 on transfected HEK293T cells (mouse, UniProt P19437 1-291)
T2 construct: whole, on cells; Expressed from pCMV5 mCD20 in HEK293T cells; also called mCD20; MS4A1
T2 sequence (looked up): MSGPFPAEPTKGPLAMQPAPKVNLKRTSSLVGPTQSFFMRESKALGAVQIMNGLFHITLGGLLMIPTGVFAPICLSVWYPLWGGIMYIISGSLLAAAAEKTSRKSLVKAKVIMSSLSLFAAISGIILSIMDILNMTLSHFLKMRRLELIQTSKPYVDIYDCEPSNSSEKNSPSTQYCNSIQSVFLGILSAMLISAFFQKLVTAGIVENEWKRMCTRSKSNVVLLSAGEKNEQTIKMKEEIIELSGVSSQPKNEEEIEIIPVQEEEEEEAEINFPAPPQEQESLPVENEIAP

B1: AC11 (chicken-derived anti-hCD20 mAb, chicken-human chimeric) (antibody, human IgG1, V domains shown)
VH: AVTLDESGGGLQTPGGALSLVCKASGFDFSSSYINWVRQAPGKGLEYVAQINKDGGGSWYAPVVKGRATISRDNGQSTVRLQLSNLRAEDTGIYFCAKNADSGCVGVGGCIDTWGHGTEVIVSS
VL: ALTQPSSVSANPGETVKITCSGGSYYYGGNYYYGWYQQKSPGSAPVTLIYNNNKRPSDIPSRFSGSTSGSTGTLTITGVQADDEAVYYCGGYDSSYVAIFGAGTTLTVL
modifications: Atto 488 NHS-ester label on lysines in the direct immunofluorescence and mCD20 assays (positions not defined)
notes: Chicken VH fused to human CH1 and CH2-CH3 of human IgG1; chicken VL fused to human kappa constant domain; made in Expi293F cells; also called chAC11; parental AC11
B2: ACR8 (chicken-derived anti-hCD20 mAb, chicken-human chimeric) (antibody, human IgG1, V domains shown)
VH: AVTLDESGGGLQTPGGALSLVCKASGFSFDRHGMFWVRQAPGKGLEWVAGIRSTGSYPKYGPAVKGRATISRDNGQSTVRLQLNNLRAEDTARYFCVRNVYIGDYDGDSIDAWGHGTEVIVSS
VL: ALTQPSSVSANLGGTVEITCSGSSSGYGSYYGWYQQKSPGSAPVTVIYENTNRPSNIPSRFSGSESGSTATLTITGVQAEDEAVYFCGSADDSGNSAIFGAGTTLTVL
modifications: Atto 488 NHS-ester label on lysines in the direct immunofluorescence and mCD20 assays (positions not defined)
notes: Chicken VH fused to human CH1 and CH2-CH3 of human IgG1; chicken VL fused to human kappa constant domain; made in Expi293F cells; also called chACR8
B3: AC1 (chicken-derived anti-hCD20 mAb, chicken-human chimeric) (antibody, human IgG1, V domains shown)
VH: AVTLDESGGGLQTPGGGLSLVCKASGFDFSSYAMVWVRQAPGKGLEYVGEITNYAAGSGTWYGAAVKGRATISRDNGQSTVRLQLNNLRAEDTATYYCAKGPISGSIGYLSSIDAWGHGTEVIVSS
VL: ALTQPSSVSANPGETVKITCSGGSSRYGYGWYQQKSPGSAPVTVIYWNDKRPSDIPSRFSGSKSGSTGTLTITGVRAEDEAVYYCGNYDNNDPAFGAGTTLTVL
modifications: Atto 488 NHS-ester label on lysines in the direct immunofluorescence and mCD20 assays (positions not defined)
notes: Chicken VH fused to human CH1 and CH2-CH3 of human IgG1; chicken VL fused to human kappa constant domain; made in Expi293F cells; also called chAC1
B4: ACR7 (chicken-derived anti-hCD20 mAb, chicken-human chimeric) (antibody, human IgG1, V domains shown)
VH: AVTLDESGGGLQTPGGALSLVCKASGFTFNSNGMGWVRQAPGKGLEWVAGIHSSGRYTYYGTAVKGRATISRDNGQSTVRLQLNDLRAEDTATYYCAKNADSAYGYWYAGSIDAWGHGTEVIVSS
VL: ALTQPSSVSANLGGTVEITCSGGYSSYGYSWHQQKSPASAPVTLIYNNNNRPSDIPSRFSGSASGSTATLTITGVQAEDEAVYYCAFTDYSSLAGVFGAGTTLTVL
modifications: Atto 488 NHS-ester label on lysines in the direct immunofluorescence and mCD20 assays (positions not defined)
notes: Chicken VH fused to human CH1 and CH2-CH3 of human IgG1; chicken VL fused to human kappa constant domain; made in Expi293F cells; also called chACR7
B5: Rituximab (antibody, V domains shown)
VH: QVQLQQPGAELVKPGASVKMSCKASGYTFTSYNMHWVKQTPGRGLEWIGAIYPGNGDTSYNQKFKGKATLTADKSSSTAYMQLSSLTSEDSAVYYCARSTYYGGDWYFNVWGAGTTVTVSA
VL: QIVLSQSPAILSASPGEKVTMTCRASSSVSYIHWFQQKPGSSPKPWIYATSNLASGVPVRFSGSGSGTSYSLTISRVEAEDAATYYCQQWTSNPPTFGGGTKLEIK
B6: hAC11-10 (humanized variant of mAb AC11) (antibody, V domains shown)
VH: EVQLVESGGGLVQPGGSLRLSCKASGFTFSSSYINWVRQAPGKGLEYVAQINKDGGGSWYAPVVKGRFTISRDNAKNTVYLQMNSLRAEDTAVYYCAKNADSGCVGVGGCIDTWGQGTTVTVSS
VL: SYELTQPSSVSVSPGQTVRITCSGGSYYYGGNYYYGWYQQKPGQAPVTVIYNNNKRPSGIPERFSGSNSGNTGTLTISGVQAEDEADYYCGGYDSSYVAIFGGGTKLTVL
notes: Humanized variable regions; constant regions not restated for this variant (the parental format is human IgG1 with a human kappa constant domain)

molecular target: T1, human CD20 on Raji B lymphoma cells; assay: cell-based or functional assay

Row | Binder | ADCC signaling, ADCC reporter bioassay (FcgRIIIa V158 Jurkat pseudoeffector cells, Raji targets; fold over Rituximab) | target cell lysis, PBMC ADCC bioassay on Raji cells (fold over Rituximab)
1 | B1 | > 100 fold relative to Rituximab | ~10 fold relative to Rituximab
2 | B2 | > 100 fold relative to Rituximab | ~10 fold relative to Rituximab
3 | B3 | > 100 fold relative to Rituximab | ~10 fold relative to Rituximab
4 | B4 | > 100 fold relative to Rituximab | ~10 fold relative to Rituximab

molecular target: T2, mouse CD20 on transfected HEK293T cells; assay: flow cytometry with Atto 488-labeled Ab on HEK293T cells transfected with pCMV5-mCD20 versus pCMV5 (mock)
Experimental: The identity of the Abs is indicated at the top. Anti-mCD20: commercially obtained anti-mCD20 Ab (eBioscience/Thermo Fisher). Data are from one of two independent, representative experiments.
Cross-reactivity of anti-hCD20 mAbs with mouse CD20: HEK293T cells in P100 tissue culture dishes were transfected at 70-90% confluency with […] pCMV5 mCD20 expression plasmid or parental pCMV5 (mock transfection) using jetOPTIMUS (Polyplus-transfection) reagent per the manufacturer's recommended protocol at a 1:1 jetOPTIMUS:DNA (L: g) ratio. Two days post transfection, the supernatant on the transfected cells was aspirated and the cells dislodged by vigorous pipetting with DPBS (HyClone). The cells were pelleted by centrifugation and the buffer replaced with 8 mL chilled blocking buffer (DPBS/10% FBS). The cells were blocked with gentle rocking at 4° C. for 30 minutes. […] of the blocked cells were transferred to individual wells of a conical-bottom 96-well plate and the cells were pelleted by centrifugation prior to incubation with […] of […] A488-labeled anti-hCD20 Abs or […] A488-labeled anti-mouse CD20 Ab (eBioscience/Thermo Fisher) at 4° C. with rocking for 1 hour. The Ab-coated cells were washed three times with cold DPBS/1% BSA and resuspended in […] DPBS/1% BSA prior to flow cytometric analysis in the FITC channel using a BD LSRFortessa X-20 cytometer. Histogram plots were generated with Flowing Software v2.5.1 (University of Turku).

Row | Binder | binding result
5 | B1 | no binding
6 | B2 | no binding
7 | B4 | no binding

molecular target: T1, human CD20 on Raji B lymphoma cells; assay: flow cytometry on Raji cells, direct immunofluorescence with A488-labeled Ab, MFI against concentration, 5PL fit [panel A]
Experimental: Raji cells were incubated with A488-labeled anti-hCD20 Abs followed by washing and flow cytometric analysis using a BD LSRFortessa X-20 instrument. The median fluorescence intensities (MFIs) of Ab-coated cells were determined using FlowJo software and fitted to an asymmetric sigmoidal 5PL curve using GraphPad Prism. Data are the mean±SD of duplicate measurements and are from one of two independent, representative experiments.

Row | Binder | EC50 [µg/mL]
8 | B1 | 5.7
9 | B2 | 2
10 | B5 | 5.6
11 | B3 | 2.5
12 | B4 | 7.3

molecular target: T1, human CD20 on Raji B lymphoma cells; assay: flow cytometry on Raji cells, indirect immunofluorescence (Atto 488-labeled anti-human Fc secondary Ab), median fluorescence intensity
Experimental: Median fluorescence intensities (MFIs) from histograms calculated using FlowJo software were used to generate the binding curves in FIG. 8. The identity and concentration of the Ab and calculated MFI is shown in the insets of histograms.
(§1) Binding of anti-hCD20 mAbs to Raji cells: Anti-hCD20 Abs diluted in DPBS/1% bovine serum albumin (BSA) were incubated with 6×10⁵ Raji cells in V-bottom 96-well plates at 4° C. for 1 hour in a final volume of […]. […] Binding of mAbs to live single cells gated by light scatter characteristics was measured using a BD LSRFortessa X-20 flow cytometer. The binding of bacteriophage displaying the Fab portions of the chicken Abs to hCD20-transfected Chinese hamster ovary (CHO) cells was also measured (FIG. 4).

Row | Binder | MFI at 16.7 µg/mL
13 | B1 | 19000
14 | B2 | 21000
15 | B5 | 14000
16 | B3 | 20000
17 | B4 | 18000

molecular target: T1, human CD20 on Raji B lymphoma cells; assay: flow cytometry on Raji cells, indirect immunofluorescence (Atto 488-labeled anti-human Fc secondary Ab), MFI against concentration, 5PL fit
Experimental: The median fluorescence intensity (MFI) of Ab-coated cells was determined using FlowJo software. Data for the lowest mAb concentration derives from cells incubated with just buffer (no Ab). […] Values are the mean±SD of duplicate measurements.
as §1

Row | Binder | EC50 [µg/mL]
18 | B1 | 3.2
19 | B2 | 2
20 | B5 | 4.5
21 | B3 | 1.8
22 | B4 | 5.9

molecular target: T1, human CD20 on Raji B lymphoma cells; assay: flow cytometry on Raji cells (binding/hCD20 receptor occupancy), A488-labeled secondary anti-human IgG Fcγ Ab, MFI against concentration, 5PL fit
Experimental: The experiment was carried out by detection of bound unlabeled anti-hCD20 Abs using A488-labeled secondary anti-human IgG Fcγ Ab. Median fluorescence values from flow cytometry were obtained using FlowJo software. EC₅₀ values were generated from an asymmetric sigmoidal 5PL fit using GraphPad Prism. Data are from one of two independent, representative experiments. […] All statistical analyses were by unpaired t test.

Row | Binder | EC50 [µg/mL]
23 | B5 | 4.5
24 | B6 | 3.5
